Results from the DeepSol protein solubility set.

experiment: soluble on expression in E. coli; label from the status in PepcDB or PDB records

Sequence | soluble on expression in E. coli
MGSDKIHHHHHHMNILIVYGTTEGQTGKIAARTATHLRERGHQVELRDSAALASDLKLGHFDAFVIAASVHQEHHQETVTNFVFAHHEALSTKPSALISVSLSAALGDQKKDAQKYVDRFVSVTDWQPSMTLLLGGALRFNKYDYFQEQFVKFVVMKSGDPSPERDHEFTDWNALANFADRFLETAG | not soluble
MGSDKIHHHHHHMNIQSIEPTPSPNTMKLTLDQTLPQGKSNNYTLKNKEEAPPFIQKLFEIEGVKGVYHVADFLAIERNAKVDWKVILPKVRAVFGDETGDGPQKEKPEVQEGYGEVQVFLQLFKGIPMQIKLSNGEEEVREGLPERFANAAFAAQQPDDNVVLERKWVEQGVRYGELADVAKDVAEEVSAAFSQERLDRLVNIAKGLVDKTQEQTEERFRKVTLADMEQDDWRDRYAALDKMDPTEEDLPVLEKALQDEKASIRRLATVYLGMIEKPVVLPLLEKALKDPSVTVRRTAGDCMSDIGDPAAIPAMIEALKDKNKLVRWRAAMFLYEVGDETAIDALRLAEDDPEFEVAMQVKMALERIVGGEEAKGSVWKQMTEEMAKGKNE | not soluble
MGSDKIHHHHHHMNIRSRTNNADDLAWVHLIERRKQVELWQFSCLRQSYTLELSPNVMEGVKPEGQLVMVQWSPSNDLQRVKVTLNIHEVTDQAAVNHHFKLVPAGCESIIIDIWGILGLIHDEALRRFYLAVLLNNELMGQFFNARASRSHHHNHACGLLEHSHEVAVTAAMLCWRYNVGPLSVGVAFIGGLLHDIGKIHLFYNADTRDGIAGSHESYNFMVLAEPLELLYRSSPKVFEALSSCLSVKIGRRSEAYIPASMVRLCDNLSMEVCHWRTAFADVPPHHWYAHSAMNDQWYKRLG | not soluble
MGSDKIHHHHHHMNIYDQLQAVEDRYEELGELLSDPDVVSDTKRFMELSREEANSRETVAVYREYKQVVQNIADAQEMIKDASGDPELEEMAKEELKNSKVAKEEYEEKLRFLLLPKDPNDDKNIILEIRGAAGGDEAALFAGDLLNMYQKYAENQGWKFEVMEASANGVGGLKEVVAMVSGQSVYSKLKYESGAHRVQRVPVTESQGRVHTSTATVLVMPEVEEVEYEIDPKDLRVDIYHASGAGGQNVNKVATAVRIIHLPTNIKVEMQEERTQQKNRDKAMKIIRARVADHFAQIAQDEQDAERKSTVGTGDRSERIRTYNFPQNRVTDHRIGLTLQKLDSILSGKLDEVIDALILYDQTQKLEELNK | soluble
MGSDKIHHHHHHMNKDLFISSFDHRVYKKQPLAERMRPHSLNDVTGQSHLVGEKGLLSRIVAAGSIGSMIFWGPPGTGKTTVARLLALETNFAFEQVSAIFTGVAELKKIFESAQARFMSGSQTVLFVDEIHRFNRAQQDSFLPVMEDGTVILIGATTENPSFELNAALLSRARVLTFLPHDNESLGMLLKRAEALEEKTLPLDDNARDVLIDMSDGDARAALTLAEEVWSVARPGEIFDAAALRKIVQRRAPIYDKGRDGHYNLISALHKSVRGSDPDAALYYLARMFDAGEDPLYIGRRLVRMAVEDVGLADPQALVICNAAKDAYDYLGSPEGELALAQACLYVATAPKSNATYLAYKAAMRCARKNGSLPPPKHILNAPTKFMKEEGYGHGYCYDHDEPDAFSGQEYFPEKLGRQSYYQPVERGFEREIAKRLEWWKQLRKKRANQK | not soluble
MGSDKIHHHHHHMNKKIIEKEILSKVIKKRKEGSNKTNYGRILLICGSQSFGGAAIMASKAVVYSGAGLVTLASDMINRAPFLSSVSEAMFLDYTRTDKLINSIAKSDVILIGSGLEDSDFSFSLLKLVFQNAKTNQLLVLDGTALSMIGKRNLNIPKKPTIIMTPHQGEWQRVSGLSISEQVPVQNYKKMVDLNIDFLVLKSSATEIYALQNPREYKELNIGGPFQAIGGMGDTLAGLIAGFLGQFKNDQISVIQAATYLHSYIARNLSQKQYVTLPTRISEQIPTEMKKIIQTSKY | not soluble
MGSDKIHHHHHHMNKNMIKGMIVFAAIAEKGSMSAAAQQLNLSSSAVSQQVTKLEMDMGISLFHRNTRNLTLTEAGSLFYENCRKVIAIVESTEQKLNNLKGIPSGELKIAAPIGFGGGLLSEPFNYLLAAHPQISLNLLLQDGPIDIVNEGIDLAICIGPLSDSNLIARHLADWRMLLCASPDYLPMHKIFKHPAELAAFNRINHPCANSETLTHVRNKECFELTSQRITVNNMQALIQLTLDGLGFAALPEPEVHKYLESGQLVTLLPEWSLNTYSVYSVTSARDKQPAKVKEALNTLSQYFSQANFNPAYHFKQCVQKDGTKGSVTNILPIKPKQASHHADVDHAS | not soluble
MGSDKIHHHHHHMNKNNQYVLSLACQDAPGIVSEVSTFLFNNGANIVEAEQFNDEDSSKFFMRVSVEIPVAGVNDFNSAFGKVVEKYNAEWWFRPRTDRKKVVIMVSKFDHCLGDLLYRHRLGELDMEVVGIISNHPREALSVSLVGDIPFHYLPVTPATKAAQESQIKNIVTQSQADLIVLARYMQILSDDLSAFLSGRCINIHHSFLPGFKGAKPYHQAHTRGVKLIGATAHFVTADLDEGPIIAQDVEHVSHRDSAEDLVRKGRDIERRVLSRAVLLFLEDRLIVNGERTVVFAD | not soluble
MGSDKIHHHHHHMNKPLDKQLAELDIFSLLLFRAIFETGHANIAARQLDVSAPKVSRALASLRLIFADELFYRRQQGFRPTPLAEQIYPAIRELTDSINLLGMQLKDHQAFHRQECQVFDLAVSSGILTTLALEFNRREGLCPSVVLHHWQENTADRIHAGELDLGLALAPEPHTELSYERLCDAPGLCLVGAANHPIWQYTDICLEHICEYPFLCMNYPGFNDKVDPLELFCHREGLIPPTVLRVTDKEEWFGHLLCQHSLAFASPLEWGLLNALPGVEIKHLPAKEISRLHSGSAVPGLYLIEKPAHHRRYSPDDREKLLHIISLTLGLVTEDHPVNFSI | not soluble
MGSDKIHHHHHHMNKTDIAQDTINAAVWTACDTFRGTVDPSVYKDYVLTMLFLKYVSDVWQDHYDDYKTKHGNKPGLIEELLKNERFVLPHRANFYTLYDQRHRPGNGERIDTALHAIEDANLGKLRDVFQDISFNANKLGEEQQKNDLLRHLLEDFAKPALNLRPSRIGQLDIIGNAYEYLIKNFASSSGKKAGEFYTPPEVSALMARLMDPQQGDEICDPTCGSGSLLLKCGRLIRERTGSGKYALYGQEAIGSTWALAKMNMFLHGEDNHRIEWGDTIRNPKLLAGNHLKHFDIVVANPPFSLEKWGHDSADTDPHDRFRRGLPPRTKGDYAFILHMIATMKPRTGRMAVVVPHGVLFRGAAEGRIRQKLIEENLLDVVIGLPEKLFYGTGIPAAVLVFRTKKKDKKVLFIDASRQYQDGKNQNLLRESDLQRILDTVQARQNVDKYAYLASPDEIAGHDYNLNIPRYVDTFEEEAEIDLMAVRREREQLKGELATLEMQMAAYLKELGYE | not soluble
MGSDKIHHHHHHMNKTMWSIGFQKHLPINEEASLFRFETAVPQPEGRDLLVKVDAVSVNPIDVAVRKNGTETLDEPKVIGWDAVGTVIAKGASAGYFEIGDRVFYAGSFKRAGSDSEYQLVDERVVGHAPEKLSNAEAAAMPLTSLTAWEALFEQLEIDREDVQGNADKSILIINGAGGVGSIATQLAQKAGLHVIASASRPETIEWCLKHGADETVNHRNNLIDEVRNLGHQYVDYILELNNIDAHWDEMVELIKPNGRMTSITQNHEPVDLKALKHKRVTFAWEWMYTKSYYETPDMETQHVYLDEIARLLDAGELISTLTKQLSPINVENLKQAHKLVEGNHMMGKVVVENLED | not soluble
MGSDKIHHHHHHMNLVEISDIDKEILMKLEYEFPFDPQPFNIISDGLKISEEELLNRVKKLLEDGIIKRIGMYVSFRAKGMDGALIAARIPQDKIEKFRKIALGIRELTHNYVRDHPKFNIWFVLKANDRDTLNENVKELLSHVESNDYVILYSKKTLKLSVKYDVIRGVSWSPNNTIRSLSKVPTAEELGINKQLLTELSYPLKISQRPFKEIAEKYKMKEDELVELIKELYDKNVIKDYGATLNGEKIGIVENGMVLLDTSNVEQACEKLALNIPEATHVVLRESNDENWKYLCYSMIHASKKETIRNVAKEISKETNSRSYMILFSLENLKPGIVI | not soluble
